tested on: K4 kissing-loop RNA reporter; experiment: apparent KD of K4 kissing-loop reporter; higher = weaker reporter binding; settings: Eterna round: R107; input ligand: arginine 13.2 mM
Experimental: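 RNA-MaP round R107: designed RNA switches with theophylline, tryptophan, arginine or FMN aptamers are transcribed on-chip within common flanks. They are titrated with a labelled K4 kissing-loop RNA reporter in RNA-MaP buffer (100 mM Tris pH 7.5, 80 mM KCl, 4 mM MgCl2), without ligand or with the indicated ligand. Median apparent KD per design.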
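Also: bound reporter read as fluorescence of individual clusters on recovered sequencing chips by microscopy, with normalized cluster intensities fitted with a binding model.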

Sequence | apparent KD of K4 kissing-loop reporter
GGUUUAUAGGAGGAUACCAGUACGAAUAAAGUACAUUAAUAGUAGAGUGAUGUUCUAAAGUACCCUUGGCAGCUUAGAUUAAGUU [ExTheophylB.H] | 180 nM
AAAGUUGCAAGUGAUACCAGACGAGUGAAGGGAAGUAAUUAAUUAGGAGUGAUGUUCCGCGUCCCUUGGCAGCACUUUGUAAUUU [Exclusion Theophylline B GF 25] | 165 nM
UGAUACCAGACGGCCGCCACUAGGACCGGGAGUGAUGUUCCAAAAUUAAAAUACUCGGCCGCCACUAGGACCGGGUCUGGUAUCU [TrypBX 25 #DoubleAptamer #SwitchBubble] | 137 nM
AUUUAUUCGUACUACUAGUGAUGUUAGUAACGAGGACCGGUACGGCCGCCACUCGAUUUGGCGAUUUUGUAUUUUUUAUUCUAUA [JR_SSTryptoA_Sub011] | 321 nM
GCCGUACGCAUGGAUACCAGUCUUUCGCGACUGGACAUGGAGUGAUGUUUCGUGAUGCUAGACCCUUGGCAGCCAUGCGUACGGC | 163 nM
GAAUAAUAACAUGAGUGAUGUUCAUGUAAACGAGGACCGGUACGGCCGCCACUCGUUUCUCAUGUAAGCCGUACCAAUAACAAUA [KL-XTryp-A5 #analogue] | 142 nM
UUCAUCGUGGUUCACGGGUGGUAUGAAACGCGAGGACCGGUACGGCCGCCACUCGGUUCCGCUUGUUGAGUGAUGUUCAAUAUUU | 333 nM
AGGUCCGAGCCCGGAAGGGCUCGGACCUGUUAGGAUAUGACGUGAUUCAGAAGGGAUGGGUGGAGUGAUGUUCCACCCGAGAGGG [#2 Same State - FMN A Attempt #20 (HarryS)] | 89.3 nM
UUUAUUAAGACGGCCGCCACUGAAUUAGAGUGAUGUUCUAAAAUUACUAAAUUAAAUUUAUUCAACAGGACCGGGUCAAUUAUUA [JR_SSTryptoB_Sub010] | 405 nM
GGCAGUGAUGUUGCCUAAGCAACGCAUGCGGAGGAUAUUCGUUCGGGAAGAAGGCCGCAGCGUUCUCUCGCGAGUGAUGUUCGCA [Same State FMN A GF 22] | 160 nM
GGCCACGGGCGAGGAUAUGGGCAUGAUUCAUCCUGGAGUGAUGUUCCAGGUCCUACGUUUCUAGCACCAGAAGGCGUUUGUUGCU [Enistein] | 196 nM
AAACAUCACUGGGAGUGAUGUUCUCAGUGACGAGGACCGGUACGGCCGCCACUCGCGAGAGAUAUAAAUAAGUAAUGACAUCAUU [Excl Tryptophan A V1] | 334 nM
AUGUAUGAAUUAGGAUAUCGUGAGCUUUGCAUAUAUAUGAUAAAUGGAUAUGUCGUAGUGAUGUUACGAGAAGGAGUGUGGAGUA [KL-XFMN-B3] | 55.7 nM
GCCAGUGAUGUUGGCGAACCAACGCAUGCAGAGGAUAUUCGUUCUGGAAGAAGGCUGCAGCGUUAUCAAACGCAGUGAUGUUGCG [Same State FMN A GF 26] | 134 nM
AGCGUCUGAAGAGGAUAUGACCAGUGAUGUUGGUUACUACCUCAAAUUAGUGUCGCGCCAAAAUCGUCAGAAGGCUUCGGCGCGC [Ussoes] | 92 nM
UGGAUAUAGUGAUGUUAUAUAGAGAUGGAUACCAGCGAAGAGAAUUGCCCUUGGCAGCCGAAAGCAGUAUCAUUAGAGAAGAAUG [#19 K4 Theophylline A Exclusion] | 252 nM
GCAGACACGCAGUGAUGUUGCGAAACGGAAGGAGCGCGUGAAAACGCAGGUAGGUCGCCGACACAUUAAUUAUAAUUUUGUUUGC [Arginine A K4 15] | 241 nM

Sequence | apparent KD of K4 kissing-loop reporter
ACUACGAAGACGGCCGCCACUGAUAUUCGUAGAUCCAUCAUUGCAUGAGUGAUGUUCAUGUAUAUCAGGACCGGGUCAAGAUGGU [KL-XTryp-B18 #analogue] | 245 nM
CUGCCGUGCCAUGGGCCAGUGAUGUUGGAACGAGGACCGGUACGGCCGCCACUCGCUUAGCGUCAAAGGCGUCCCGAAUAGAAAG [theeternabot_exclusion_KL_Trp_A_14] | 230 nM
CGCAGUGAUGUUGCGAAUAUAAUAACGGAAGGAGCGCGUGAAAACGCAGGUAGGUCGCCGUUUGGUAUGAUGGAAACAUCGUACC [Arginine A K4 11] | 138 nM
UGCACGGGCUCGGCCGCCACUCCCGCGGGUCGAAAGGUCCGCUACUGAGUGAUGUUCGGUUGGAGGAGGACCGGGAGCCCGUGCA [#2 Exclusion - Tryptophan B Attempt #24 (HarryS)] | 92.9 nM
AAAUAGAUCAGUCAUCCAGUGAUGUUGGAAGGAGCGUGCGAAAGCACAGGUAGGUCGCCAAAAUAAAAGUGGCUGAUCAAAAUAA | 374 nM
AAGUGAUGUUGUAGUGAUGUUGUGAUGUUGCAGGAUAUAUAGUGAUGUAGAAGGGUAUGUGCAGUGUUGUUGUUUGAGUGUUCAU [dttyumullin] | 41.8 nM
CGAGCGGAGUGAUGUUCCGUGCCAGCAGAUACCAGAUUGAAAGAGAUCCCUUGGCAGCUGCGUCACACCCUUACGUGAUAGGACC [theeternabot_sameState_KL_Theo_A_32] | 178 nM
AUUAAUUUCAGAGGAUAUCGUAAUUUUAUUUAAUUUAUUCAUUUGUGCAGUGAUGUUGCUAAUAUUCGAGAAGGCUGAUUUAUAA [whbob_Ex_FMNB__2th223] | 159 nM
UAUUGCCACAGAGUGAUGUUCUGGCCGGAUACCAGCAUGCAAUUAUGCCCUUGGCAGCCGGAUGCGCGUCCAGCCACCGGGCCUG [theeternabot_exclusion_KL_Theo_A_29] | 783 nM
GGGAGUAGUGCGGCCGCCACUGAGAAAGAAGAAGAAUAUAGUGAUGUUAUAUAGGAAUUAAAGAACAGGACCGGGCAUUAGAUUU [SSTRyptB.O] | 208 nM
CAUAGGAAACUAUGUUCCUCUCUUACUGAAGGAGCGCGUGAAAACGCAGGUAGGUCGCAGGAUUUGAGAGUGAUGUUCUCAUUAA [Ex Arginine A K4 15] | 260 nM
UGAUAGGACAGAAGGAGCGGUAGUGAUGUUACCAAAAGGCUAAGGUGUCAAAAGACACCCUACCAGGUAGGUCGCUGUCCUAUCU | 131 nM
UGUACCGAGUCAGGAUAUGGCGUCGAAAGACGAAUCGUAGUGAUGUUACGGAUCUGCGAAAGCAGUCCAGAAGGGACUUGGUACU [FmnBS 26 G37+C49] | 172 nM
ACUAGAAAACCAGUGAUGUUGGCCUGGGAUACCAGCUUCUAUUAUAGCCCUUGGCAGCCCUUUAGUACAAGUGACCUUGCGACCG [theeternabot_sameState_KL_Theo_A_9] | 217 nM
UCUAAGGUCGAACCGGUAUGAUCACCGGAUACCAGAGGCGAAAGCCUCCCUUGGCAGCCGAGUGUAGUGAUGUUACACGGGUUCU | 147 nM
AUUGCACCUGCGGCCGCCACUCACUCCGGGCUGCUGGCCAGUGAUGUUGGUACGGCUGCCGGUUAGAGGACCGGGCAGGAGCUAA [Esage] | 113 nM

same assay, conditions: Eterna round: R107; input ligand: none

Sequence | apparent KD of K4 kissing-loop reporter
GGAUAGGAUAGAGGAUAUGGACUAGGCAAGAAUAACUUGUCUAGUAAAUCCAUGAGGAGUGAUGUUCCAGAAGGCUGUCCUAUCG [MatMod 3 - Jieux - Exclusion - FMN B] | 226 nM
AAAUAAUAAAUGCAGCCAGUGAUGUUGGAAGGAGCGUGCGAAAGCACAGGUAGGUCGCCAACCAAAGCUGGAAACAGCAACUGCA [#SwitchBubble 3 #K4Early] | 84.5 nM
ACAGAUUGAUUGAUUCACUUUGUAGCUGCGAAGGAUAUUAAGACGCUAAGAAGGUCGCUUAAGGGUAGUGAUGUUACCUUUUGAG [theeternabot_sameState_KL_FMN_A_27] | 57.8 nM
UUGGAAAUCAGAAGGAGCGUCUAAAAUAAGAGAACCAGUGAUGUUGGUUUUAUUUAAUGAAGACAGGUAGGUCGCUGAAUUUUUA [Same State Arginie B GF 19] | 99.3 nM
CUCCAACUUGAUGAUACCAGAGAGGAGGAAGUGAUGUUGACUCCGGCUACAUACUGGCGACUCCCUUGGCAGCAUUACGUCAUCC [theeternabot_sameState_KL_Theo_B_3] | 318 nM
AGGCACGAGCAAGGAUAUUGAGUAGAGUGAUGUUCUGCCUAAGUUGGCUCGAAAGAGCCUUCUUAGCGAGAAGGUGCUCGUGCCU [#2 Same State - FMN A Attempt #26 (HarryS)] | 666 nM
CCUUCUCUUGAUAGUGAUGUUGUCAAGGGCAAGGAUAUCAUCUUAAUGAGAAGGUGUCCUUGAUAACAUGGAGGUCUGAAACAGA [Omei KL FMN A Exc C v7] | 301 nM
CGUUCUUCUGUCGAUACCAGCUUCAGUUGGCGGCCAGUGAUGUUGGUAUCGCCGAUGCCAAGCCCUUGGCAGCGACAUGAGACCC [Onrire] | 182 nM
AAAAUAAAUCAGUGAUGUUGGUAUCCGGAUACCAGCGAUAAUCAUCGCCCUUGGCAGCCGCGGACGUACAAAAUAAGUACGUCCU [MatMod 15 - Jieux - Same State - Theophylline A] | 218 nM
GACUGGUUAACGAGUGAUGUUCGAUGGGAAGGAGCGCGCAGAAGUGCAGGUAGGUCGCCCUAUAACCAGGAAAUGGCUGGAUUAU [3.)] | 205 nM
GGUUUAUAGGAGGAUACCAGUACGAAUAAAGUACAUUAAUAGUAGAGUGAUGUUCUAAAGUACCCUUGGCAGCUUAGAUUAAGUU [ExTheophylB.H] | 116 nM
AAAGUUGCAAGUGAUACCAGACGAGUGAAGGGAAGUAAUUAAUUAGGAGUGAUGUUCCGCGUCCCUUGGCAGCACUUUGUAAUUU [Exclusion Theophylline B GF 25] | 152 nM
UGAUACCAGACGGCCGCCACUAGGACCGGGAGUGAUGUUCCAAAAUUAAAAUACUCGGCCGCCACUAGGACCGGGUCUGGUAUCU [TrypBX 25 #DoubleAptamer #SwitchBubble] | 162 nM
AUUUAUUCGUACUACUAGUGAUGUUAGUAACGAGGACCGGUACGGCCGCCACUCGAUUUGGCGAUUUUGUAUUUUUUAUUCUAUA [JR_SSTryptoA_Sub011] | 359 nM
GCCGUACGCAUGGAUACCAGUCUUUCGCGACUGGACAUGGAGUGAUGUUUCGUGAUGCUAGACCCUUGGCAGCCAUGCGUACGGC | 206 nM
GAAUAAUAACAUGAGUGAUGUUCAUGUAAACGAGGACCGGUACGGCCGCCACUCGUUUCUCAUGUAAGCCGUACCAAUAACAAUA [KL-XTryp-A5 #analogue] | 151 nM
UUCAUCGUGGUUCACGGGUGGUAUGAAACGCGAGGACCGGUACGGCCGCCACUCGGUUCCGCUUGUUGAGUGAUGUUCAAUAUUU | 290 nM
AGGUCCGAGCCCGGAAGGGCUCGGACCUGUUAGGAUAUGACGUGAUUCAGAAGGGAUGGGUGGAGUGAUGUUCCACCCGAGAGGG [#2 Same State - FMN A Attempt #20 (HarryS)] | 91.2 nM
UUUAUUAAGACGGCCGCCACUGAAUUAGAGUGAUGUUCUAAAAUUACUAAAUUAAAUUUAUUCAACAGGACCGGGUCAAUUAUUA [JR_SSTryptoB_Sub010] | 461 nM
GGCAGUGAUGUUGCCUAAGCAACGCAUGCGGAGGAUAUUCGUUCGGGAAGAAGGCCGCAGCGUUCUCUCGCGAGUGAUGUUCGCA [Same State FMN A GF 22] | 173 nM
GGCCACGGGCGAGGAUAUGGGCAUGAUUCAUCCUGGAGUGAUGUUCCAGGUCCUACGUUUCUAGCACCAGAAGGCGUUUGUUGCU [Enistein] | 215 nM
